Reference: patent publication CN115141270A (SHENZHEN KANGMAI BIOTECHNOLOGY CO LTD, dated 2022)

What was measured:
[1] = biological target: T1, SARS-CoV-2 S蛋白(ECD) (购自金斯瑞, Z03481) (SARS-CoV-2, UniProt P0DTC2 14-1213)
[2] = biological target: T1, SARS-CoV-2 S蛋白(ECD) (购自金斯瑞, Z03481); assay: ELISA, S protein (ECD) coated at 2 μg/ml, antibody titrated from 10 μg/mL
[3] = biological target: SARS-CoV-2 (中国新型冠状病毒, MT226610) live virus, spike glycoprotein (SARS-CoV-2); assay: cell-based or functional assay
[4] = biological target: T2, SARS-CoV-2 RBD结构域蛋白 (序列来自NC_045512.2, 自行表达) (SARS-CoV-2, UniProt P0DTC2 319-541); assay: ELISA, RBD domain protein coated at 2 μg/ml, antibody titrated from 10 μg/mL
T2 construct: domain: RBD

B1: 抗体nCoV617 (anti-coronavirus spike glycoprotein human monoclonal antibody) (antibody, V domains shown)
VH: QVQLVESGGGVVQPGRSLRLSCAASGFTFSSYAMHWVRQAPGKGLEWVALISYDGSNKYYADSVKGRFTISRDNSKNTLYLQMNSLRAEDTAVYYCARGLGLRFLEWPISSYWGQGTLVTVSS
VL: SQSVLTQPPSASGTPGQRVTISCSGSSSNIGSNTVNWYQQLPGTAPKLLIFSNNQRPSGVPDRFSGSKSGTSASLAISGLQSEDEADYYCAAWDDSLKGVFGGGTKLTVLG
notes: also called 抗S蛋白抗体; 抗冠状病毒刺突糖蛋白单克隆抗体
In the case of B1, the Kd [1] is reported as 8.02 nM, the EC50 [2] is reported as 2 ng/mL and the “IC50 (neutralisation of live virus on Vero E6 cells, cytopathic effect)” value [3] is reported as 2.3 ng/mL. For the same binder, the EC50 [4] was 3 ng/mL.
